Experimental data from US20230357424A1 (published 2023).
Blank lines part the entries; values can stand above or below the molecule they belong to.

What was measured:
[1] = target: human CD45 D1-D4 (amino acids 194-578) with C-terminal 8xHis tag (human) (UniProt P08575); test: SPR, Biacore T200, single cycle kinetics; IgG captured on Protein A chip, CD45 D1-D4 as analyte
[2] = target: human CD45 D1-D4 (amino acids 194-578) with C-terminal 8xHis tag (human) (UniProt P08575); test: SPR, Biacore T200, single cycle kinetics; scFv-Fc captured on Protein A chip, CD45 D1-D4 as analyte
[3] = target: T1, human CD45 D1-D4 (amino acids 194-578) with C-terminal 8xHis tag (human, UniProt P08575 194-578); test: SPR, Biacore T200, single cycle kinetics; VHH monomeric Fc fusion captured on Protein A chip, CD45 D1-D4 as analyte
T1 construct: Made in house in expi293 cells; SPR analyte; also called D1-D4 region of human CD45RO
T1 sequence: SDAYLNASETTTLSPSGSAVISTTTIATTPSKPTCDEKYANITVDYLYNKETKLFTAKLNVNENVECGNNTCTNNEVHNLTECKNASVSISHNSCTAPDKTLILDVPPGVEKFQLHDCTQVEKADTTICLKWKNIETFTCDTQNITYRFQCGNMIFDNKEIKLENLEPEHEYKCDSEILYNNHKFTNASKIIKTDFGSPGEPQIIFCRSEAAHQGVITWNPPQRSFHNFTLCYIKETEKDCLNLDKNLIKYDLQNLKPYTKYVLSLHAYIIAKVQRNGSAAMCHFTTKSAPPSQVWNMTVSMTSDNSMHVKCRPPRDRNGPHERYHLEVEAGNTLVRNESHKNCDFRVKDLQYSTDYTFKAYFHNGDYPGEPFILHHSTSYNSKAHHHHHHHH
Method: The yeast display system as described above was employed to domain map the VHH binding sites. For labeling, His-tagged VHH proteins were incubated with the yeast and detected using an anti-VHH antibody. Seven VHH clonotypes bound across all four domains of CD45RO, with clonotypes 3, 4, and 7 targeting the D1 and D2 domains, clonotype 10 binding the D3 domain, clonotypes 2, 6, and 8 interacting with the D4 domain (Table 3).
Affinities were determined using a Biacore T200 instrument by measuring Kon/Koff in single cycle kinetics mode. Hybridoma clones were either reformatted and expressed in the form of the parent IgG (gap8.3, 4B2, 9.4 as murine IgG2A, VHE as human IgG1), and scFvs were expressed as human IgG1 Fc fusions. For the anti-CD45 VHH, proteins were expressed as monomeric Fc fusions. […] Human CD45 D1-D4 was generated in house with a C-terminal 8×His tag (SEQ ID NO: 610) and expressed and purified from expi293 cells by standard Ni- and SEC chromatography methods. Kinetic affinity constants were calculated using the Biacore® T200 software package.

[4] = target: T2, hCD45 D1 domain displayed on yeast as Aga2 fusion (human); test: epitope mapping (yeast display) and affinity studies; grade in column Notes
T2 construct: not shown: Aga2p anchor protein for yeast surface expression
T2 chain: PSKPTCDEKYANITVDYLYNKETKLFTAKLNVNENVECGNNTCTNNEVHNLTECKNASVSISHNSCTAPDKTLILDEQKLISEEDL
Method: (§1) CD45 domains described in FIG. 2 were fused to the C-term of Aga2 with an N-term FLAG and C-term c-Myc tag. Yeast constructs were expressed on the surface of yeast (S. cervisiae ATCC strain YVH10). Yeast were grown overnight at 30C in synthetic selective media SD-SCAA, then induced again overnight at 20° C. in SG-SCAA. Yeast were incubated with individual a-CD45 antibodies or a-CD45 VHH for 60 minutes on ice, washed, and incubated with anti-mouse/anti-human Fc or anti-VHH Alexa647 secondary antibody as well as an anti-FLAG or anti-c-Myc Alexa488 secondary antibody. Labeled yeast were analyzed by flow cytometry on a Beckman Coulter Cytoflex® and analyzed using the FlowJo® software package.
(§2) The results of the epitope mapping of the VHHs described above conducted in substantial accordance with the teaching of Example 3 and the affinity measurements conducted in substantial accordance with the teaching of Example 4 above are summarized in the following Table 7 and the sequences of the VHHs and corresponding CDRs are provide in Table 4 above: […]

[5] = target: T3, hCD45 D4 domain displayed on yeast as Aga2 fusion (human, UniProt P08575 479-571); test: as above
T3 construct: not shown: Aga2p anchor protein for yeast surface expression
T3 sequence: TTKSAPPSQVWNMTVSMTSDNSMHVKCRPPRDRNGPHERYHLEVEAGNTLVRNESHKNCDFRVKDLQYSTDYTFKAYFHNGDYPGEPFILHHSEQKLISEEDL
Method: as §1, §2

[6] = target: T4, hCD45 D3 domain displayed on yeast as Aga2 fusion (human); test: as above
T4 construct: not shown: Aga2p anchor protein for yeast surface expression
T4 chain: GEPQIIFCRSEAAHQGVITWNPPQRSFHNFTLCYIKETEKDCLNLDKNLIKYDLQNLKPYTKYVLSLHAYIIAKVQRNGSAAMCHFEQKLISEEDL
Method: as §1, §2

B1: 1G1 VHH monomeric Fc fusion (Fc fusion)
VHH: QVQLQASGGGLVQAGGSLRLSCAASGRTVSSDAMGWFRQAPGKEREFVAAINWNGASTYYGDSAQGRFTISRDNAKNTVYLQMNSLKSEDTAVYYCAASDWVVGGISLMNGAEYKYWGQGTLVTVSS
notes: Clonotype 7; Construct used for SPR; not shown: monomeric Fc tag
Kd [3]: 28 nM

B3: 2F8 VHH monomeric Fc fusion (Fc fusion)
VHH: QVQLQQFGGGLVQAGGSLRLSCAASGRTFSGYAMGWFRQAPGKEREFVAAINWSGGSTYYADSVKGRYTISRDNAKNTGYLQMNSLKSEDTAVYYCAASDWVVGGISLMNGAEYKYWGQGTLVTVSS
notes: as for B1
Kd [3]: 69 nM

B4: 2C5 VHH monomeric Fc fusion (Fc fusion)
VHH: QVQLQEFGGGLVQAGASLRLSCAASGGTFSYFMGWFRQAPGKEREFVATINRNGGATGYADSVKGRFTISRDNAKNTLYLQMDSVTPEDTAVYYCAAARESSVYYTSTDPAEYGYWGQGTQVTVSS
notes: Clonotype 6; Construct used for SPR; not shown: monomeric Fc tag
Kd [3]: 1.4 nM

B8: 2H7 VHH monomeric Fc fusion (Fc fusion)
VHH: QVQLQESGGGLVQAGGSLRLSCAASGRTFSTHAMGWFRQAPGKEREFVAAIAWSGGSTYYADSVKGRFTISRDISKNTIYLQMNSLKPEDTALYYCAATNGGAWHYHERYFGSWGQGTLVTVSS
notes: Clonotype 8; Construct used for SPR; not shown: monomeric Fc tag
Kd [3]: 0.88 nM

B9: 4B2 anti-CD45 antibody, recombinant mouse IgG2a (antibody, from another filing, V domains shown)
VH: GVQLQESGAELARPGASVKMSCKASGYTFTSYTMQWVKQRPGQGLEWIGYINPSSGYIKYNQKFKDKVTLTADKSSTTAYMQLSRLTSEDSAVYYCARRGSYFFDFWGQGTSVTVSS
VL: DIVITQDELSNPVTSGESVSISCRSSKSLLYKDGKTYLNWFLQRPGQSPQLLIYLMSTRASGVSDRFSGSGSGTDFTLEISRVKAEDVGVYYCQQLVEYPFTFGGGTKLEVK
Kd [1]: 17 nM

B11: 2G4 VHH monomeric Fc fusion (Fc fusion)
VHH: QVQLQEFGGGLVQAGGSLRLSCAASGSISRINAMGWYRQAPGKQRELVAVITSGGSTHYADSVKGRFTISRDNAKNTLYLQMNSLKPEDTAVYYCNGRRKTTGWGSLREWEGSRDPDEYNYWGQGTLVTVSS
notes: Clonotype 2; Construct used for SPR; not shown: monomeric Fc tag
Kd [3]: 8.3 nM

B12: 1E4 VHH monomeric Fc fusion (Fc fusion)
VHH: QVQLQESGGGLVQPGGSLRLSCAASGGTFSDYGMGWFRQAPGKEREFVSSISWSGNSVYYAGAVRGRFTISRDNAKNTVYLQMNSLQPEDTAVYYCAASSTWNNNDPTEYEYWGQGTLVTVSS
notes: Clonotype 3; Construct used for SPR; not shown: monomeric Fc tag
Kd [3]: 299 nM

B13: 1A10 VHH monomeric Fc fusion (Fc fusion)
VHH: QVQLQAFGGGLVQAGGSLGLSCSASGTIFNLDYMGWYRQALGKQRELVATITSDGRTNYADSVKGRFTIFRDGAKNAILMQMNSLKPEDTAVYYCKAYLSGRSDYWGQGTQVTVSS
notes: Clonotype 10; Construct used for SPR; not shown: monomeric Fc tag
Kd [3]: 32 nM

B14: 1A10 VHH, His-tagged (VHH)
VHH: QVQLQAFGGGLVQAGGSLGLSCSASGTIFNLDYMGWYRQALGKQRELVATITSDGRTNYADSVKGRFTIFRDGAKNAILMQMNSLKPEDTAVYYCKAYLSGRSDYWGQGTQVTVSS
notes: Clonotype 10; not shown: His tag
binding result [6]: binds

B15: 1D6 VHH monomeric Fc fusion (Fc fusion)
VHH: QVQLQESGGGSVQAGGSLGLFCSASGTIFNIDVMGWYRQAPGKQRELVATITSDGRTNYADSVKGRFTISRDGAKNAVHVQMNSLKPEDTAVYYCKAYLSGRSDYWGQGTQVTVSS
notes: as for B13
Kd [3]: 522 nM

The remaining lines, values ahead:

Kd [1]: 2.4 nM
Molecule: 9.4 anti-CD45 antibody, recombinant mouse IgG2a

Kd [2]: 18 nM
Molecule: 9.4 scFv linked to a human IgG1 Fc domain

binding result [4]: binds
B2: 1G1 VHH, His-tagged (VHH)
VHH: QVQLQASGGGLVQAGGSLRLSCAASGRTVSSDAMGWFRQAPGKEREFVAAINWNGASTYYGDSAQGRFTISRDNAKNTVYLQMNSLKSEDTAVYYCAASDWVVGGISLMNGAEYKYWGQGTLVTVSS
notes: Clonotype 7; not shown: His tag

Kd [1]: 21 nM
B5: gap8.3 anti-CD45 antibody, recombinant mouse IgG2a (antibody, from another filing, V domains shown)
VH: EVQLQQSGPELVKTGASVKISCKASGYSFTGYFIHWVKQSHGKSLEWIGYISCYNGATSYNQKFKGKATFTVDTSSSTAYMQFNSVTSEDSAVYYCVRNYYGNLDAMDYWGQGTSVTVSS
VL: DIVMTQSHKFMSTSVGDRVSITCKASQDVSTAVAWYQQKPGQSPKILIYSASYRYTGVPDRFTGSGSGTDFTFTISSVQAEDLAVYYCQQHYSTPRTFGGGTKLEIK

Kd [2]: 40 nM
B6: gap8.3 scFv linked to a human IgG1 Fc domain (scFv, from another filing, V domains shown)
VH: EVQLQQSGPELVKTGASVKISCKASGYSFTGYFIHWVKQSHGKSLEWIGYISCYNGATSYNQKFKGKATFTVDTSSSTAYMQFNSVTSEDSAVYYCVRNYYGNLDAMDYWGQGTSVTVSS
VL: DIVMTQSHKFMSTSVGDRVSITCKASQDVSTAVAWYQQKPGQSPKILIYSASYRYTGVPDRFTGSGSGTDFTFTISSVQAEDLAVYYCQQHYSTPRTFGGGTKLEIK

binding result [5]: binds
B7: 2D6 VHH, His-tagged (VHH)
VHH: QVQLQESGGGLVQAGASLRLSCAASGRTFSSFMGWFRQAPGKERKFVATINWNGGATGYADSVKGRFTISRDNAKNTLYLQMNSLKPEDTAVYYCAAARTGSAYYTSSDAGEYNYWGQGTQVTVSS
notes: Clonotype 6; not shown: His tag

Kd [2]: 12 nM
B10: 4B2 scFv linked to a human IgG1 Fc domain (scFv, from another filing, V domains shown)
VH: GVQLQESGAELARPGASVKMSCKASGYTFTSYTMQWVKQRPGQGLEWIGYINPSSGYIKYNQKFKDKVTLTADKSSTTAYMQLSRLTSEDSAVYYCARRGSYFFDFWGQGTSVTVSS
VL: DIVITQDELSNPVTSGESVSISCRSSKSLLYKDGKTYLNWFLQRPGQSPQLLIYLMSTRASGVSDRFSGSGSGTDFTLEISRVKAEDVGVYYCQQLVEYPFTFGGGTKLEVK

binding result [6]: binds
B16: 1D6 VHH, His-tagged (VHH)
VHH: QVQLQESGGGSVQAGGSLGLFCSASGTIFNIDVMGWYRQAPGKQRELVATITSDGRTNYADSVKGRFTISRDGAKNAVHVQMNSLKPEDTAVYYCKAYLSGRSDYWGQGTQVTVSS
notes: as for B14
